Test results: paper PMC3713010, “Sox2 Transcriptionally Regulates Pqbp1, an Intellectual Disability-Microcephaly Causative Gene, in Neural Stem Progenitor Cells”

T1: Oct6 DNA-binding domain (BD-Oct6) (Mus musculus (B6), UniProt P21952 317-416)
T1 sequence: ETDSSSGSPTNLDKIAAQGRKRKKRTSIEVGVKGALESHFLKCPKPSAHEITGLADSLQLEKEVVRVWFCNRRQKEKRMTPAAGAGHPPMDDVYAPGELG

T2: Brn2 DNA-binding domain (BD-Brn2) (Mus musculus (B6), UniProt P31360 336-435)
T2 sequence: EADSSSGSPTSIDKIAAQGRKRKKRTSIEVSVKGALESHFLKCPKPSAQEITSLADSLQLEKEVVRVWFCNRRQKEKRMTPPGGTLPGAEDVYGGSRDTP

B1: 73 (dsDNA)
DNA 1: GGGGGCTTGTCCTCAGCATCTATGGTAACACACAAATCCTGAAGCCCCC
DNA 2: GGGGGCTTCAGGATTTGTGTGTTACCATAGATGCTGAGGACAAGCCCCC
B2: 79 (dsDNA)
DNA 1: GGGGGTGATAGTAACAAAAACCATTTTGTTTTTGGCTCCCCC
DNA 2: GGGGGAGCCAAAAACAAAATGGTTTTTGTTACTATCACCCCC
B3: 84 (dsDNA)
DNA 1: GGGGGTATGAATCACAATGTAAATATCTGTGTTTACCCCC
DNA 2: GGGGGTAAACACAGATATTTACATTGTGATTCATACCCCC
B4: 90 (dsDNA)
DNA 1: GGGGGTGCTGTTTTTTGTTACTGTCACTAATTACATTTTAAATTATCCCCC
DNA 2: GGGGGATAATTTAAAATGTAATTAGTGACAGTAACAAAAAACAGCACCCCC
B5: 87 (dsDNA)
DNA 1: GGGGGTTATGACTGTTTAATAATATATATTGTGTTCTGGCCCCCC
DNA 2: GGGGGGCCAGAACACAATATATATTATTAAACAGTCATAACCCCC
B6: 72 (dsDNA)
DNA 1: GGGGGGTTTGTTTTTTAAGGAACTGTAATGAACAAATGTCAGGACCCCC
DNA 2: GGGGGTCCTGACATTTGTTCATTACAGTTCCTTAAAAAACAAACCCCCC
B7: 68 (dsDNA)
DNA 1: GGGGGTTTGTTTGTTTGTTTAAAGGATTTATTTATTTATCCCCC
DNA 2: GGGGGATAAATAAATAAATCCTTTAAACAAACAAACAAACCCCC
B8: 80 (dsDNA)
DNA 1: GGGGGCATCCCAAATTGTTTTCTCACTTTTGTACCACAGATAGATCCCCC
DNA 2: GGGGGATCTATCTGTGGTACAAAAGTGAGAAAACAATTTGGGATGCCCCC
B9: 85 (dsDNA)
DNA 1: GGGGGACATATGCAATTGTTTCCTGTATTATAGTAGAGATCCCCC
DNA 2: GGGGGATCTCTACTATAATACAGGAAACAATTGCATATGTCCCCC
B10: 75 (dsDNA)
DNA 1: GGGGGGCTCTGGGTATAATTAACAATAAAATGCACCCCC
DNA 2: GGGGGTGCATTTTATTGTTAATTATACCCAGAGCCCCCC
B11: 83 (dsDNA)
DNA 1: GGGGGGTCCAAGTTTTGTGACCCTTTAATACAGTTAGATCCCCCC
DNA 2: GGGGGGATCTAACTGTATTAAAGGGTCACAAAACTTGGACCCCCC
B12: 86 (dsDNA)
DNA 1: GGGGGAGTTTAGTTTGTAGAGTACTTACCTAGCAGCACAAAGCCCTGCCCCC
DNA 2: GGGGGCAGGGCTTTGTGCTGCTAGGTAAGTACTCTACAAACTAAACTCCCCC
B13: 78 (dsDNA)
DNA 1: GGGGGTCTTTTGATTTGTCCGATTTAGGTTTTAAACCCCC
DNA 2: GGGGGTTTAAAACCTAAATCGGACAAATCAAAAGACCCCC
B14: 69 (dsDNA)
DNA 1: GGGGGACAAGTGATTTGTCCTTATCACATAGCTAGGAAAAGGGAATCCCCC
DNA 2: GGGGGATTCCCTTTTCCTAGCTATGTGATAAGGACAAATCACTTGTCCCCC
B15: 76 (dsDNA)
DNA 1: GGGGGCAGGTATGATTGTCCATATTGCTAATAAACCCCCC
DNA 2: GGGGGGTTTATTAGCAATATGGACAATCATACCTGCCCCC
B16: 91 (dsDNA)
DNA 1: GGGGGTTTGTTTGTTTGTTTTTAAAAATAAGGTCTCGGGCCCCC
DNA 2: GGGGGCCCGAGACCTTATTTTTAAAAACAAACAAACAAACCCCC
B17: 74 (dsDNA)
DNA 1: GGGGGGACTTTCTTGGCGGATTTGGTAACGACAAAGTTAGGATCCCCC
DNA 2: GGGGGATCCTAACTTTGTCGTTACCAAATCCGCCAAGAAAGTCCCCCC
B18: 88 (dsDNA)
DNA 1: GGGGGTGTTTTGTTTTGTTTTTTGTATTGGGAAGTGGGCCCCC
DNA 2: GGGGGCCCACTTCCCAATACAAAAAACAAAACAAAACACCCCC
B19: 81 (dsDNA)
DNA 1: GGGGGAGAGTGCTGGTATTAAAAGGCACAAACTTTCTTTCCCCC
DNA 2: GGGGGAAAGAAAGTTTGTGCCTTTTAATACCAGCACTCTCCCCC
B20: 89 (dsDNA)
DNA 1: GGGGGCTACCACACCCAACCTCTAGTAAAGGTTTACAAAATGAATGACCCCC
DNA 2: GGGGGTCATTCATTTTGTAAACCTTTACTAGAGGTTGGGTGTGGTAGCCCCC
B21: 77 (dsDNA)
DNA 1: GGGGGTATGTCTATTTGTTTTTTATTTTTTGAAGACTCCCCC
DNA 2: GGGGGAGTCTTCAAAAAATAAAAAACAAATAGACATACCCCC
B22: 82 (dsDNA)
DNA 1: GGGGGACTATTTATTTGTGTTTTCCTATTCACTTTACATCCCCC
DNA 2: GGGGGATGTAAAGTGAATAGGAAAACACAAATAAATAGTCCCCC

molecular target: Pax6 DNA-binding domain (BD-Pax6) (Mus musculus (B6), UniProt P63015 190-289); experiment: EMSA; 10% glycerol, 20 mM HEPES pH 7.8, 45 mM KCl, 10 mM NaCl, 1 mM EDTA, 1 mM DTT, 0.2 ug/uL BSA, 0.1% NP-40, 50 ng poly-dIdC; 20 ng each GST protein; room temperature 30 min (heterodimers 4 C); 6% PAGE 0.25x TBE; details: protein: recombinant; tags: GST (N-terminal, pGEX-6P-1); label: 32P-dCTP fill-in of the 5' (dG)5 overhangs of both strands (Methods; control probes are given with GGG)
Sequence (P63015 190-289): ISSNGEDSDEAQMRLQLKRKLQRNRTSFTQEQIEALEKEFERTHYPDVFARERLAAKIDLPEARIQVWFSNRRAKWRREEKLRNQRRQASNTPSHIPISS
Procedure, shortened: (§1)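 GST-tagged transcription factor DNA-binding domains were made in E. coli BL21 and purified on glutathione-sepharose. They were tested against candidate cis-element oligonucleotides, annealed and labelled with 32P-dCTP. Each protein (20 ng) was mixed with 40,000–50,000 cpm probe and 50 ng poly-dIdC in HEPES/KCl glycerol buffer with BSA and detergent for 30 min at room temperature. Samples were resolved on 6% polyacrylamide in 0.25×TBE at 4°C. DNA binding was scored as band radioactivity in the expected shift region, measured on a BAS4000 imager.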

| Binder | binding result |
| --- | --- |
| B1 | no binding |
| B2 | no binding |
| B3 | binds |
| B4 | binds |
| B5 | binds |
| B6 | binds |
| B7 | binds |
| B8 | no binding |
| B9 | binds |
| B10 | binds |
| B11 | binds |
| B12 | no binding |
| B13 | no binding |
| B14 | no binding |
| B15 | binds |
| B16 | binds |
| B17 | no binding |
| B18 | no binding |
| B19 | no binding |
| B20 | binds |
| B21 | no binding |
| B22 | no binding |

molecular target: T1, Oct6 DNA-binding domain (BD-Oct6); experiment: as above; details: protein: recombinant; tags: GST (N-terminal, pGEX-6P-1); label: 32P-dCTP fill-in of the 5' (dG)5 overhangs of both strands (Methods; control probes are given with GGG)
Procedure, shortened: as §1

| Binder | binding result |
| --- | --- |
| B1 | no binding |
| B2 | no binding |
| B3 | no binding |
| B4 | binds |
| B5 | binds |
| B6 | binds |
| B7 | binds |
| B8 | binds |
| B9 | no binding |
| B10 | binds |
| B11 | binds |
| B12 | no binding |
| B13 | binds |
| B14 | binds |
| B15 | binds |
| B16 | binds |
| B17 | no binding |
| B18 | no binding |
| B19 | no binding |
| B20 | no binding |
| B21 | no binding |
| B22 | binds |

molecular target: T2, Brn2 DNA-binding domain (BD-Brn2); experiment: as above; details: protein: recombinant; tags: GST (N-terminal, pGEX-6P-1); label: 32P-dCTP fill-in of the 5' (dG)5 overhangs of both strands (Methods; control probes are given with GGG)
Procedure, shortened: as §1

| Binder | binding result |
| --- | --- |
| B1 | no binding |
| B2 | no binding |
| B3 | no binding |
| B4 | binds |
| B5 | binds |
| B6 | binds |
| B7 | binds |
| B8 | no binding |
| B9 | no binding |
| B10 | binds |
| B11 | no binding |
| B12 | no binding |
| B13 | no binding |
| B14 | no binding |
| B15 | binds |
| B16 | no binding |
| B17 | no binding |
| B18 | no binding |
| B19 | no binding |
| B20 | no binding |
| B21 | no binding |
| B22 | no binding |
